Laboratory results from PMC6666309.

Columns and labels:
pro-cathepsin D [1] = target: pro-cathepsin D (UniProt P07339); assay: MST
pro-cathepsin D [2] = target: pro-cathepsin D (UniProt P07339)
pro-cathepsin D [3] = target: pro-cathepsin D (UniProt P07339); remark: listed apart in the source

Chain of pro-cathepsin D (P07339 21-412): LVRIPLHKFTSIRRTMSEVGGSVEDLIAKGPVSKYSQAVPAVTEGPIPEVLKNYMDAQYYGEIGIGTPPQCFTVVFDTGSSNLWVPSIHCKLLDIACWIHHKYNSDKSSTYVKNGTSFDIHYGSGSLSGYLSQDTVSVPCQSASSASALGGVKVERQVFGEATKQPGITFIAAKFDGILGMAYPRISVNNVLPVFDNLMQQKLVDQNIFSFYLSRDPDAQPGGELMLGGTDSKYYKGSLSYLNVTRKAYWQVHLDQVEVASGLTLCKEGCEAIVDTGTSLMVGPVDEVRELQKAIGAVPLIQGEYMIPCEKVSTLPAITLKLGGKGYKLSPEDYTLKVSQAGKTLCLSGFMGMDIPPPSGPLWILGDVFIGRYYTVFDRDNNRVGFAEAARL

Substance	Kd (pro-cathepsin D [1])	DSF - ΔTm of proCTSD (1 μM proCTSD with 2 μM peptide BAC, pH 7.4) (pro-cathepsin D [2])	Normalized Vmax of CTSD activity (20 nM proCTSD, 65 nM peptide BAC, pH 3.5) (pro-cathepsin D [2])	DSF - Tm reduction of proCTSD with CDE at a 1:1 molar ratio (pro-cathepsin D [3])	DSF - ΔTm of proCTSD with peptide CDE, pH 7.4 (pro-cathepsin D [2])	Normalized Vmax of CTSD activity (20 nM proCTSD, 65 nM peptide CDE, pH 3.5) (pro-cathepsin D [2])
multi-granulin domain peptide BAC (domain or fragment)	2800 nM	-3.38 °C	1.89	–	–	–
multi-granulin domain peptide CDE (domain or fragment)	130 nM	–	–	2.75 °C	-2.78 °C	1.84
